Assay [1] addresses T1, hBCMA ECD hFc (ACRO, BC7-H5254) (human, UniProt Q02223 1-54).
T1 chain: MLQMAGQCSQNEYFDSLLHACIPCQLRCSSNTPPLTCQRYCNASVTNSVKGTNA
The assay is described as follows: ELISA. (In general: ELISA stands for enzyme-linked immunosorbent assay.)

Assay [2] has as its target T1, hBCMA ECD hFc (ACRO, BC7-H5254). Description: BLI (Fortebio). In general terms: BLI is a label-free optical method that tracks binding on a fibre tip over time.
Assay [3] has as its target T2, hu (human) BCMA ECD His (ACRO, BCA-H522y) (human, UniProt Q02223 1-54).
T2 chain: T1 chain
The assay is described as follows: ELISA.

What is called EC50 is the concentration at which the effect is half-maximal. Low values mean higher potency in that assay, high ones lower potency in that assay. In general, Kd refers to the concentration at which binding is half-saturated.

Positions count from the first letter of the chain named.

B1: 5E2 (antibody, V domains shown)
VH: EVQLQQSGPELIKPGASVKMSCKASGYTFTSYVVHWVKQKPGQGLEWIGYIIPYNDDTKYNEKFKGKATLTSDKSSSTAYMELSSLTSEDSAVYYCARWDYDDGYFDYWGQGTTLTVSS
VL: DVVMTQTPLSLPVTLGDQASISCRSSQSLLHSNGNTYLHWYLQKPGQSPKLLIYKVSNRFSGVPDRFSGSGSGTDFTLKISRVEAEDLGVYFCSQITHIPFTFGSGTKLEIKR
As for B1, the EC50 in assay [1] stood at 0.279 nM; in assay [3] it was 0.054 nM. The molecule also yielded a Kd in assay [2] below 0.001 nM.

B2: 5F4 (antibody, V domains shown)
VH: EVQLQQSGPELIKPGASVKMSCKASAGKWERWAHWVKQKPGQGLEWIGYKPAYWTSAYNEKFKGKATLTSDKSSSTAYMELSSLTSEDSAVYYCATLDYDDGYFDYWGQGTTLTVSS
VL: EIVLTQSPGTLSLSPGERATLSCRASQSVSSSYLAWYQQKPGQAPRLLIYQASSDATGIPDRFSGSGSGTDFTLTISRLEPEDFAVYYCQQYGYPPSYTFGQGTKVEIK
For B2, the EC50 in assay [1] came out at 0.305 nM. In assay [2], the Kd is below 0.001 nM.

B3: R0317 (C11D5.3 BCMA mouse monoclonal antibody) (antibody, V domains shown)
VH: QIQLVQSGPELKKPGETVKISCKASGYTFTDYSINWVKRAPGKGLKWMGWINTETREPAYAYDFRGRFAFSLETSASTAYLQINNLKYEDTATYFCALDYSYAMDYWGQGTSVTVSS
VL: DIVLTQSPASLAMSLGKRATISCRASESVSVIGAHLIHWYQQKPGQPPKLLIYLASNLETGVPARFSGSGSGTDFTLTIDPVEEDDVAIYSCLQSRIFPRTFGGGTKLEIK
B3 had an EC50 in assay [1] of 0.32 nM. This molecule also registered a Kd in assay [2] below 0.001 nM.

B4: hu VH2-VL1 (antibody, V domains shown)
VH: QVQLVQSGAEVKKPGASVKMSCKASGYTFTSYVVHWVRQAPGQGLEWIGYIIPYNDDTKYNEKFKGRVTLTSDKSTSTAYMELSSLRSEDTAVYYCARWDYDDGYFDYWGQGTTVTVSS
VL: DVVMTQSPLSLPVTLGQPASISCRSSQSLLHSNGNTYLHWYLQKPGQSPQLLIYKVSNRFSGVPDRFSGSGSGTDFTLKISRVEAEDVGVYFCSQITHIPFTFGQGTKLEIK
B4 gave an EC50 in assay [3] of 0.0506 nM.

B5: hu VH1-VL3 (antibody, V domains shown)
VH: B4 VH with R67K, V68A, T76S
VL: DIVMTQTPLSLSVTPGQPASISCKSSQSLLHSNGNTYLHWYLQKPGQPPQLLIYKVSNRFSGVPDRFSGSGSGTDFTLKISRVEAEDVGVYYCSQITHIPFTFGQGTKLEIKR
With B5, a half-maximal response in assay [3] (EC50) required 0.0545 nM.

B6: hu VH1-VL1 (antibody, V domains shown)
VH: B4 VH with R67K, V68A, T76S
VL: B4 VL
The molecule B6 came in with an EC50 in assay [3] of 0.0474 nM.

B7: hu VH1-VL2 (antibody, V domains shown)
VH: B4 VH with R67K, V68A, T76S
VL: B4 VL with S7T, P12S, L15P, R24K
B7: the EC50 in assay [3] was 0.0206 nM.

(Values after patent US20230039487A1 (published 2023).)
